Experimental data reported in publication PMC9482650, “Quantitative fragmentomics allow affinity mapping of interactomes” (Nature Communications, 2022).

T1: ARHGEF11, O15085
T1 sequence (O15085 42-136, limits assumed, looked up): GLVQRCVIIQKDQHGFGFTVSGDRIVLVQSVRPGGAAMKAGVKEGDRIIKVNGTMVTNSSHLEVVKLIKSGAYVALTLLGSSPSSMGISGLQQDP

T2: HTRA3, P83110
T2 sequence (P83110 354-453, limits assumed, looked up): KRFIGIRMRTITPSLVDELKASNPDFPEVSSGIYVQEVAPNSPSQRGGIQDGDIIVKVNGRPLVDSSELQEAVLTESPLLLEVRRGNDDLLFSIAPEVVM

T3: HTRA4, P83105
T3 sequence (P83105 378-476, limits assumed, looked up): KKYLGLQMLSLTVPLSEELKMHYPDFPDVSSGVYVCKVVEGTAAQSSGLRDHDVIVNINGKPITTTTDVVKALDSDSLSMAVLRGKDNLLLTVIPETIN

T4: LNX2_3, Q8N448
T4 sequence (Q8N448 463-564, limits assumed, looked up): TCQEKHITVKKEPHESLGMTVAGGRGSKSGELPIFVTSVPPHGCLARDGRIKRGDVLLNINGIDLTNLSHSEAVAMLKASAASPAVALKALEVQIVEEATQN

T5: MPP7, Q5T2T1
T5 sequence (Q5T2T1 134-230, limits assumed, looked up): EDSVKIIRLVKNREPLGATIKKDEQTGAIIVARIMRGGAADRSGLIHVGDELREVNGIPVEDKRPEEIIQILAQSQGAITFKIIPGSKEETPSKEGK

T6: PARD3B_1, Q8TEW8
T6 sequence (Q8TEW8 196-299, limits assumed, looked up): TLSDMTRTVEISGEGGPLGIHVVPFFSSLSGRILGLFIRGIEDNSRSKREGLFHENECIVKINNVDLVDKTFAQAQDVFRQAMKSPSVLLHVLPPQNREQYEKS

T7: PCLO, Q9Y6V0
T7 sequence (Q9Y6V0 4491-4600, limits assumed, looked up): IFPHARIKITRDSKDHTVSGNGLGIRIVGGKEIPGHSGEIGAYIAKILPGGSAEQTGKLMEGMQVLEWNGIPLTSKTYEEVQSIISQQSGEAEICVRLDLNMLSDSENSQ

T8: SIPA1L2, Q9P2F8
T8 sequence (Q9P2F8 945-1036, limits assumed, looked up): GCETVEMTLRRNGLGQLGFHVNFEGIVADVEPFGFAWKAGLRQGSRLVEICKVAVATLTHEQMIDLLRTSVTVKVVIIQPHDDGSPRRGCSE

T9: SNTA1, Q13424
T9 sequence (Q13424 82-180, limits assumed, looked up): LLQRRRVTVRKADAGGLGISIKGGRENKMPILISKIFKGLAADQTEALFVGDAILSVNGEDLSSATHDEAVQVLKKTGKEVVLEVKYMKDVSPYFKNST

T10: SNTG1, Q9NSN8
T10 sequence (Q9NSN8 52-150, limits assumed, looked up): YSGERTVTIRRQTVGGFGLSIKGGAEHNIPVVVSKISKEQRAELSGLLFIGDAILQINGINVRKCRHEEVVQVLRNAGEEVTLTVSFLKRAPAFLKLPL

T11: SNTG2, Q9NY99
T11 sequence (Q9NY99 68-166, limits assumed, looked up): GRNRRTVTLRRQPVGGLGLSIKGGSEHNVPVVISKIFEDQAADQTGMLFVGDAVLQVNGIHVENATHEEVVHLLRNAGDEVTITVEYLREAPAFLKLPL

T12: SYNJ2BP, P57105
T12 sequence (P57105 8-110, limits assumed, looked up): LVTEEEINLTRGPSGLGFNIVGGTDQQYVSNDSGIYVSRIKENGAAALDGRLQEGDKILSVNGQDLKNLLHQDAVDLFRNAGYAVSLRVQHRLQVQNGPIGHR


What was measured:
Assay in all cases: holdup assay
Set-up in all cases: key: below the threshold = too weak to quantify, mostly under pKd 3.1 to 4
Details in all cases: plain residues with an end cap or a label only (N-terminal biotin on a linker: ado-ado)
ARHGEF11, O15085 = target: T1, ARHGEF11, O15085
ARHGEF12, Q9NZN5-2 = target: ARHGEF12, Q9NZN5-2
Sequence of ARHGEF12, Q9NZN5-2 (Q9NZN5 other isoform, or with tags, fused parts or gaps): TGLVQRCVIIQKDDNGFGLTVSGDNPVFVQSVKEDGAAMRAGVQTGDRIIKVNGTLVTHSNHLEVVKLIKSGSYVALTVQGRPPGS

DLG2_2, Q15700 = target: DLG2_2, Q15700
Sequence of DLG2_2, Q15700 (Q15700 189-283): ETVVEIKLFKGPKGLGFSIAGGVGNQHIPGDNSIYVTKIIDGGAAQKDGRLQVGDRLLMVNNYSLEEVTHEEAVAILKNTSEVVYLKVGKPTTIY

HTRA3, P83110 = target: T2, HTRA3, P83110
HTRA4, P83105 = target: T3, HTRA4, P83105
IL16_1, Q14005 = target: IL16_1, Q14005
Sequence of IL16_1, Q14005 (Q14005 210-306): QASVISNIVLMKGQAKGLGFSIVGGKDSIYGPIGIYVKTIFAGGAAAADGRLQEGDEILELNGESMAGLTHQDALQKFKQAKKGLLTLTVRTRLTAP

Inadl_3, Q8NI35 = target: Inadl_3, Q8NI35
Sequence of Inadl_3, Q8NI35 (Q8NI35 359-469): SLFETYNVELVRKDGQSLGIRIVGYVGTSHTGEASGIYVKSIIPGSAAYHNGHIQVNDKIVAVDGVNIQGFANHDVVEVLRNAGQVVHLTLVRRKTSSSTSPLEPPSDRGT

Inadl_4, Q8NI35 = target: Inadl_4, Q8NI35
Sequence of Inadl_4, Q8NI35 (Q8NI35 547-651): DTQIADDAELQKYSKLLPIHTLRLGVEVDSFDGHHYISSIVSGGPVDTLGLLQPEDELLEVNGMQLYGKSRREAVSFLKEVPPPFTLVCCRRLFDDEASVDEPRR

Inadl_9, Q8NI35 = target: Inadl_9, Q8NI35
Sequence of Inadl_9, Q8NI35 (Q8NI35 1530-1615): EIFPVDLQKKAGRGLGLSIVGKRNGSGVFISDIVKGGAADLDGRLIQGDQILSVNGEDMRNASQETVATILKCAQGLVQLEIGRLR

LNX2_3, Q8N448 = target: T4, LNX2_3, Q8N448
MAGI2_5, Q86UL8 = target: MAGI2_5, Q86UL8
Sequence of MAGI2_5, Q86UL8 (Q86UL8 915-1017): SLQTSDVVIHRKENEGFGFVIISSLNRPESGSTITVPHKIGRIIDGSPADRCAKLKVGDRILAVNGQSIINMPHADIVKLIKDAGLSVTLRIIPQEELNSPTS

MAST1, Q9Y2H9 = target: MAST1, Q9Y2H9
Sequence of MAST1, Q9Y2H9 (Q9Y2H9 962-1065): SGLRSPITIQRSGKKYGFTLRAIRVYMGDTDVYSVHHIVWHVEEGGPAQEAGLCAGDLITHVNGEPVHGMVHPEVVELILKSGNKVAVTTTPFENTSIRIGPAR

MPP7, Q5T2T1 = target: T5, MPP7, Q5T2T1
NHERF2_2, Q15599 = target: NHERF2_2, Q15599
Sequence of NHERF2_2, Q15599 (Q15599 142-238): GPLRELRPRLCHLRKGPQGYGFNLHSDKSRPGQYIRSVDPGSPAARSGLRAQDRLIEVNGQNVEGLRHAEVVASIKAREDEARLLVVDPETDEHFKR

NHERF4_1, Q86UT5-2 = target: NHERF4_1, Q86UT5-2
Sequence of NHERF4_1, Q86UT5-2 (Q86UT5 other isoform, or with tags, fused parts or gaps): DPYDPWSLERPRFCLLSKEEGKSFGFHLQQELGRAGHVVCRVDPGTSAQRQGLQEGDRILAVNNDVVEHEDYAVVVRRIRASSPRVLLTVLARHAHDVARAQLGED

NOS1, P29475 = target: NOS1, P29475
Sequence of NOS1, P29475 (P29475 9-101): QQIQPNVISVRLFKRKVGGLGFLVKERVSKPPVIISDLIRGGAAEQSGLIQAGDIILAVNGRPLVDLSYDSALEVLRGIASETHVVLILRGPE

PARD3B_1, Q8TEW8 = target: T6, PARD3B_1, Q8TEW8
PARD3_3, Q8TEW0 = target: PARD3_3, Q8TEW0
Sequence of PARD3_3, Q8TEW0 (Q8TEW0 582-685): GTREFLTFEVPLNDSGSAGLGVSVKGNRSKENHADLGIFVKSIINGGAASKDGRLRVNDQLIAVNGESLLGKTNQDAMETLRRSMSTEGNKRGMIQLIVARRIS

PCLO, Q9Y6V0 = target: T7, PCLO, Q9Y6V0
SCRIB_2, Q14160 = target: SCRIB_2, Q14160
Sequence of SCRIB_2, Q14160 (Q14160 857-960): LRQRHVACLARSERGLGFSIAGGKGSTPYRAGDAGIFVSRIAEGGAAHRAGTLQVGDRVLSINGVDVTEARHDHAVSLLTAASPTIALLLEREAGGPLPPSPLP

SIPA1L2, Q9P2F8 = target: T8, SIPA1L2, Q9P2F8
SNTA1, Q13424 = target: T9, SNTA1, Q13424
SNTG1, Q9NSN8 = target: T10, SNTG1, Q9NSN8
SNTG2, Q9NY99 = target: T11, SNTG2, Q9NY99
SYNJ2BP, P57105 = target: T12, SYNJ2BP, P57105
TJP1_2, Q07157 = target: TJP1_2, Q07157
Sequence of TJP1_2, Q07157 (Q07157 181-274): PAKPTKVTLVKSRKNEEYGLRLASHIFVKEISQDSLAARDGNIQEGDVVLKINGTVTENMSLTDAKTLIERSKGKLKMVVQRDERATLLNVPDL

Binder | pKd (ARHGEF11, O15085) | pKd (ARHGEF12, Q9NZN5-2) | pKd (DLG2_2, Q15700) | pKd (HTRA3, P83110) | pKd (HTRA4, P83105) | pKd (IL16_1, Q14005) | pKd (Inadl_3, Q8NI35) | pKd (Inadl_4, Q8NI35) | pKd (Inadl_9, Q8NI35) | pKd (LNX2_3, Q8N448) | pKd (MAGI2_5, Q86UL8) | pKd (MAST1, Q9Y2H9) | pKd (MPP7, Q5T2T1) | pKd (NHERF2_2, Q15599) | pKd (NHERF4_1, Q86UT5-2) | pKd (NOS1, P29475) | pKd (PARD3B_1, Q8TEW8) | pKd (PARD3_3, Q8TEW0) | pKd (PCLO, Q9Y6V0) | pKd (SCRIB_2, Q14160) | other results
QSPANIYYKV [EFNB1, P52799] | below the threshold | below the threshold | below the threshold | below the threshold | below the threshold | below the threshold | below the threshold | below the threshold | below the threshold | below the threshold | below the threshold | 3.93 | 3.61 | below the threshold | below the threshold | below the threshold | 3.66 | below the threshold | below the threshold | below the threshold | pKd (SIPA1L2, Q9P2F8): below the threshold; pKd (SNTA1, Q13424): below the threshold; pKd (SNTG1, Q9NSN8): below the threshold; pKd (SNTG2, Q9NY99): below the threshold; pKd (SYNJ2BP, P57105): below the threshold; pKd (TJP1_2, Q07157): below the threshold
TLPRKRMSSI [GPRC6A, Q5T6X5] | below the threshold | 3.54 | below the threshold | below the threshold | below the threshold | below the threshold | below the threshold | below the threshold | below the threshold | below the threshold | below the threshold | 3.6 | below the threshold | below the threshold | below the threshold | below the threshold | below the threshold | below the threshold | below the threshold | below the threshold | pKd (SIPA1L2, Q9P2F8): below the threshold; pKd (SNTA1, Q13424): below the threshold; pKd (SNTG1, Q9NSN8): below the threshold; pKd (SNTG2, Q9NY99): below the threshold; pKd (SYNJ2BP, P57105): below the threshold; pKd (TJP1_2, Q07157): below the threshold

Continued, in another order:

pKd (ARHGEF11, O15085) | pKd (ARHGEF12, Q9NZN5-2) | pKd (DLG2_2, Q15700) | pKd (HTRA3, P83110) | pKd (HTRA4, P83105) | pKd (IL16_1, Q14005) | pKd (Inadl_3, Q8NI35) | pKd (Inadl_4, Q8NI35) | pKd (Inadl_9, Q8NI35) | pKd (LNX2_3, Q8N448) | pKd (MAGI2_5, Q86UL8) | pKd (MAST1, Q9Y2H9) | pKd (MPP7, Q5T2T1) | pKd (NHERF2_2, Q15599) | pKd (NHERF4_1, Q86UT5-2) | pKd (NOS1, P29475) | pKd (PARD3B_1, Q8TEW8) | pKd (PARD3_3, Q8TEW0) | pKd (PCLO, Q9Y6V0) | pKd (SCRIB_2, Q14160) | Binder | other results
4.44 | 3.56 | 4.76 | below the threshold | 3.59 | 4.1 | 4.81 | below the threshold | below the threshold | below the threshold | 4.36 | 3.9 | below the threshold | below the threshold | below the threshold | below the threshold | below the threshold | 3.85 | below the threshold | 4.1 | TACCHSETVV [TGFA, P01135] | pKd (SIPA1L2, Q9P2F8): below the threshold; pKd (SNTA1, Q13424): 5.04; pKd (SNTG1, Q9NSN8): 4.43; pKd (SNTG2, Q9NY99): 4.38; pKd (SYNJ2BP, P57105): 4.55; pKd (TJP1_2, Q07157): below the threshold
below the threshold | below the threshold | below the threshold | below the threshold | below the threshold | below the threshold | below the threshold | below the threshold | below the threshold | below the threshold | below the threshold | below the threshold | below the threshold | below the threshold | 3.91 | 4.38 | below the threshold | below the threshold | below the threshold | below the threshold | TSSMRGMDAV [RSRC2, Q7L4I2] | pKd (SIPA1L2, Q9P2F8): below the threshold; pKd (SNTA1, Q13424): below the threshold; pKd (SNTG1, Q9NSN8): below the threshold; pKd (SNTG2, Q9NY99): below the threshold; pKd (SYNJ2BP, P57105): below the threshold; pKd (TJP1_2, Q07157): below the threshold
